Results on 4 molecules are retold here after publication PMC8591536, “DNA asymmetry promotes SUMO modification of the single‐stranded DNA‐binding protein RPA” (The EMBO Journal, 2021).

Some results are limits rather than exact numbers.

The target of data set [1] is T1, replication protein A (RPA): Rfa1(1–621), His6-Rfa2(1–273), Rfa3(1–122) (budding yeast, UniProt P22336 1-621; P26754 1-273; P26755 1-122).
T1 construct: Rfa1 subunit of RPA, budding yeast, residues 1-621, tagless; Rfa2 subunit of RPA, budding yeast, residues 1-273, noncleavable N-terminal hexahistidine tag; Rfa3 subunit of RPA, budding yeast, residues 1-122, tagless; also called wild-type RPA; source: E. coli BL21 (DE3) CodonPlus RIL, co-expressed, purified (Ni-NTA, HiTrap Heparin, Superdex200); not shown: His6, N-terminal, kept; copies: + +
T1 sequence (P22336 whole entry, chain 1 of 3, the tested form may be a part): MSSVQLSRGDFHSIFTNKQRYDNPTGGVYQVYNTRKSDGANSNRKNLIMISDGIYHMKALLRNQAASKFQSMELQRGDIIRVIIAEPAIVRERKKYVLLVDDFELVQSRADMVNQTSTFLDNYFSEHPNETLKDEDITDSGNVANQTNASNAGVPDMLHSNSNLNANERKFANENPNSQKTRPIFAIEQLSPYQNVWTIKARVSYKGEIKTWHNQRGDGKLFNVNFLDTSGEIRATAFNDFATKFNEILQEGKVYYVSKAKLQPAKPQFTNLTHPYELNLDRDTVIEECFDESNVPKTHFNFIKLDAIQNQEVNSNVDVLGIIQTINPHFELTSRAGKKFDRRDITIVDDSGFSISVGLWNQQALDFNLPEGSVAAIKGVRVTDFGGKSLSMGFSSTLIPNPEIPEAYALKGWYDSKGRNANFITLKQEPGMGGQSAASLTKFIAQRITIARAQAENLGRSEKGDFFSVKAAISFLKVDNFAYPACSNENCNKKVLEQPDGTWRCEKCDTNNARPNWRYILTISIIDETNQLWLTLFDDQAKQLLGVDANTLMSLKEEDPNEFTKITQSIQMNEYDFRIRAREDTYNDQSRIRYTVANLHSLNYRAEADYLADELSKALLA
T1 sequence (P26754 whole entry, chain 2 of 3, the tested form may be a part): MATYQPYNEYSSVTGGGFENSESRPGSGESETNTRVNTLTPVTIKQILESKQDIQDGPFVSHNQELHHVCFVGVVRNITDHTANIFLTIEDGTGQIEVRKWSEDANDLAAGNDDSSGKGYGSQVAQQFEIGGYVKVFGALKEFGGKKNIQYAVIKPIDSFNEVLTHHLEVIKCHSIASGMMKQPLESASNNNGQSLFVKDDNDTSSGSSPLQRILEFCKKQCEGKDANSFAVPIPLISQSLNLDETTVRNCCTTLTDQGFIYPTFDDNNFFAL
T1 sequence (P26755 whole entry, chain 3 of 3, the tested form may be a part): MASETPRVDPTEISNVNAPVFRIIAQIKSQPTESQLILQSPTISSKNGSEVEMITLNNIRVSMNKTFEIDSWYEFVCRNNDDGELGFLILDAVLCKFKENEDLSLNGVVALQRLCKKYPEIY
Kind of data set: fluorescence polarisation; 50 nM 5'-fluorescein-labelled DNA in complex with RPA or RPA∆WH, serially diluted Siz2∆CT; 23°C; 20 mM HEPES pH 7.5, 125 mM NaCl, 0.1% Tween-20; apparent Kd, single-site model with ligand depletion. The following applies: both partners purified.

Data set [2] addresses T2, RPA reconstituted with ∆WH-Rfa2: Rfa1(1–621), His6-Rfa2(1–205), Rfa3(1–122) (budding yeast, UniProt P22336 1-621; P26754 1-205; P26755 1-122).
T2 construct: Rfa1 subunit of RPA, budding yeast, residues 1-621, tagless; Rfa2 subunit of RPA, budding yeast, residues 1-205 (winged helix domain removed), noncleavable N-terminal hexahistidine tag; Rfa3 subunit of RPA, budding yeast, residues 1-122, tagless; The purification of this variant is not described on its own; also called RPA∆WH; RPA lacking the WH domain of Rfa2; source: E. coli BL21 (DE3) …
Described as above. The note with it: both partners purified.

A further data set deals with RPA (Rfa1/Rfa2/Rfa3) (Saccharomyces cerevisiae? (budding …, UniProt P22336;P26754;P26755 1-621;1-273;1-122)). Kind of data set: fluorescence polarization; 5 mM MgCl2; FP: 20 mM HEPES pH 7.5, 125 mM NaCl, 0.1% Tween-20, 23°C, 50 nM DNA (RPA/SUMO-RPA on ss32: 1 nM DNA, plus 5 mM MgCl2, 1 mM DTT); EMSA: same buffer with 5 mM MgCl2 (Fig 8 also 1 mM DTT), 23°C, 6% gel in 0.5x TBE. The following applies: protein: recombinant; tags: noncleavable N-terminal His6 on Rfa2; copies: 1;1;1; label: 5' 6-FAM; single strand.
RPA (Rfa1/Rfa2/Rfa3) (Saccharomyces cerevisiae?, sequence (P22336 whole entry, chain 1 of 3): as the sequence (P22336 whole entry, chain 1 of 3, the tested form may be a part) above
RPA (Rfa1/Rfa2/Rfa3) (Saccharomyces cerevisiae?, sequence (P26754 whole entry, chain 2 of 3): as the sequence (P26754 whole entry, chain 2 of 3, the tested form may be a part) above
RPA (Rfa1/Rfa2/Rfa3) (Saccharomyces cerevisiae?, sequence (P26755 whole entry, chain 3 of 3): as the sequence (P26755 whole entry, chain 3 of 3, the tested form may be a part) above

In data set [3] the target is T1, replication protein A (RPA): …. The experiment in a line: native gel or EMSA; 10 nM 6-FAM-ds20ss32 DNA pre-bound to RPA, RPA∆WH or SUMO-RPA, serially diluted full-length Siz2; 25 min at 23°C; 20 mM HEPES pH 7.5, 125 mM NaCl, 0.1% Tween-20, 5 mM MgCl2; native 6% polyacrylamide gel in 0.5x TBE; apparent Kd. The note with it: both partners purified.
In data set [4] the target is T2, RPA reconstituted with ∆WH-Rfa2: …. The data set is described as above. The following applies: both partners purified.
For the next data set, the target named is T3, Siz2∆CT (Saccharomyces cerevisiae? (budding …, UniProt Q12216 1-420)).
T3 sequence: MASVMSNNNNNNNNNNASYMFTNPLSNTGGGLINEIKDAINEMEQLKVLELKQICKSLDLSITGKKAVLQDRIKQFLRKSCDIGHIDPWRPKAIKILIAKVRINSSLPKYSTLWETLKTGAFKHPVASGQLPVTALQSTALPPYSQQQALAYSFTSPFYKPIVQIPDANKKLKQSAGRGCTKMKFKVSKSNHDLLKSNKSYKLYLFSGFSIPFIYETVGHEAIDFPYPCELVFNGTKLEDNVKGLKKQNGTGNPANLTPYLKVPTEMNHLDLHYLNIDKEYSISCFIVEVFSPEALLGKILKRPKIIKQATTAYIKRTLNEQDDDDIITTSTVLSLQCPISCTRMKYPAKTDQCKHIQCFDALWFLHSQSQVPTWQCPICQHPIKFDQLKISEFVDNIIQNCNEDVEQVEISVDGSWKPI
Kind of data set: fluorescence polarization; FP: 20 mM HEPES pH 7.5, 125 mM NaCl, 0.1% Tween-20, 23°C, 50 nM DNA (RPA/SUMO-RPA on ss32: 1 nM DNA, plus 5 mM MgCl2, 1 mM DTT); EMSA: same buffer with 5 mM MgCl2 (Fig 8 also 1 mM DTT), 23°C, 6% gel in 0.5x TBE. The following applies: protein: recombinant; tags: His6-thioredoxin removed with TEV; label: 5' 6-FAM on strand 1; blunt.

T2 sequence (P22336 whole entry, chain 1 of 3, the tested form may be a part): as the sequence (P22336 whole entry, chain 1 of 3, the tested form may be a part) above
T2 sequence (P26754 1-205, chain 2 of 3): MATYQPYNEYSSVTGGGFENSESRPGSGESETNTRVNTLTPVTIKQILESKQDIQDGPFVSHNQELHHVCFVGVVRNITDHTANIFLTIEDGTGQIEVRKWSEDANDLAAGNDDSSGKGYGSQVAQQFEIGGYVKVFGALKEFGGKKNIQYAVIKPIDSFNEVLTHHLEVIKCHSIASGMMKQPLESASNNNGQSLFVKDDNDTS
T2 sequence (P26755 whole entry, chain 3 of 3, the tested form may be a part): as the sequence (P26755 whole entry, chain 3 of 3, the tested form may be a part) above

B1: Siz2(1–420) (domain or fragment, budding yeast, UniProt Q12216 1-420, looked up)
chain: T3 sequence
notes: SUMO E3 ligase Siz2, budding yeast, residues 1-420 (SAP, PINIT and SP-RING domains; C-terminal region removed); also called Siz2∆CT; source: E. coli BL21 (DE3) CodonPlus RIL, purified (Ni-NTA, TEV cleavage, Superdex75); not shown: His6, N-terminal, cleaved; thioredoxin, N-terminal, cleaved
For B1, the binding result in data set [1] and in data set [2] was “binds” in each case.

In the case of TTTTTTTTTTTTTTTTTTTTTTTTTTTTTTTT (ssDNA) [6-FAM-ss32 (32dT)], the equilibrium dissociation constant (Kd) with RPA (Rfa1/Rfa2/Rfa3) is less than 1 nM.

B2: Siz2(1–726) (enzyme, budding yeast, UniProt Q12216 1-726, looked up)
chain: MASVMSNNNNNNNNNNASYMFTNPLSNTGGGLINEIKDAINEMEQLKVLELKQICKSLDLSITGKKAVLQDRIKQFLRKSCDIGHIDPWRPKAIKILIAKVRINSSLPKYSTLWETLKTGAFKHPVASGQLPVTALQSTALPPYSQQQALAYSFTSPFYKPIVQIPDANKKLKQSAGRGCTKMKFKVSKSNHDLLKSNKSYKLYLFSGFSIPFIYETVGHEAIDFPYPCELVFNGTKLEDNVKGLKKQNGTGNPANLTPYLKVPTEMNHLDLHYLNIDKEYSISCFIVEVFSPEALLGKILKRPKIIKQATTAYIKRTLNEQDDDDIITTSTVLSLQCPISCTRMKYPAKTDQCKHIQCFDALWFLHSQSQVPTWQCPICQHPIKFDQLKISEFVDNIIQNCNEDVEQVEISVDGSWKPIHNSSAVITDTVNQNHSVKNENQGTVKQEQDYDSRNAFDTNLRNGSNHNEPEIISLDSSDDEAFIPASKSFPTHVNPRNDQLRADIFPSESEGSSDYNPNHTSTPKGSPTMDQDNYQDAFQMRSFLNQGATTNINDTPTNNSSINSFVTATNGDSRIFYNRGPSTPLLPAVLQNLTNQTEAQRNPYGPNYNTTAQDRNLLGIEGDLPPIPPVDPNSEAETELPTRTTSAAHLPPYIHVSTSGHGDDGKIRKRRHSNVSIYIPKNPYATLMKRRPQANHAIMNKTLAQTNDFNTSAQDNSEVVDLTSD
notes: SUMO E3 ligase Siz2, budding yeast, full length; cloned as Siz2(1–726), called Siz2(1–727) in the purification paragraph; also called full-length Siz2; Siz2(1–727); source: E. coli BL21 (DE3) CodonPlus RIL, purified (Ni-NTA, HiTrap Heparin, Ulp1 cleavage, Ni-NTA, Superdex200)
With B2, the binding result in data set [3] and in data set [4] was “binds” each time.

B3: 6-FAM-ds20 (dsDNA)
DNA 1: GCTGTAGCTAGTTTTGCTTC
DNA 2: GAAGCAAAACTAGCTACAGC
As to B3, in the data set with Siz2∆CT, the binding result is reported as “binds”.
